The test system of the data set is Escherichia coli TOP10. The data set can be described thus: shrunken log2 fold change of peptide-encoding DNA abundance (4.5 h post-induction vs induction); higher = less antimicrobial activity (less host growth inhibition). The following applies: time post-induction: 4.5 h; library: site-saturation at positions 5, 18, 19, 20.
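Note: peptides expressed intracellularly from a pBAD plasmid library in pooled LB shake-flask culture, induced with 0.3% L-arabinose, DNA abundance read by NGS, three biological replicates, DESeq2 with apeglm shrinkage.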

With RRIRFRPPRLPRPRPRPHRAPRP, the “shrunken log2 fold change” value was -0.0573.

RRIRKRPPRLPRPRPRPMDSPRP: the “shrunken log2 fold change” value was -0.0874.

For RRIRDRPPRLPRPRPRPQGWPRP, the “shrunken log2 fold change” value stood at 0.693.

Regarding RRIRNRPPRLPRPRPRPIAMPRP, the “shrunken log2 fold change” value is -0.0835.

With RRIRTRPPRLPRPRPRPSTEPRP, the “shrunken log2 fold change” value was -0.456.

Regarding RRIRSRPPRLPRPRPRPFINPRP, the “shrunken log2 fold change” value is -0.639.

RRIRARPPRLPRPRPRPTSLPRP: the “shrunken log2 fold change” value was determined as 0.225.

Consider RRIRHRPPRLPRPRPRPNVVPRP, for which the “shrunken log2 fold change” value amounted to 0.015.

As to RRIRCRPPRLPRPRPRPKMNPRP, the “shrunken log2 fold change” value was -0.415.

Regarding RRIRPRPPRLPRPRPRPDWKPRP, the “shrunken log2 fold change” value turned out to be 0.286.

As for RRIRCRPPRLPRPRPRPGGGPRP, the “shrunken log2 fold change” value stood at 0.76.

With RRIRERPPRLPRPRPRPPTGPRP, the “shrunken log2 fold change” value worked out at 0.161.

RRIRERPPRLPRPRPRPTFRPRP: the “shrunken log2 fold change” value was -0.00937.

As for RRIRLRPPRLPRPRPRPMILPRP, the “shrunken log2 fold change” value is -0.677.

On to RRIRPRPPRLPRPRPRPFDAPRP, for which the “shrunken log2 fold change” value was found to be 0.0141.

On to RRIRARPPRLPRPRPRPEGAPRP, for which the “shrunken log2 fold change” value turned out to be 1.37.

RRIRWRPPRLPRPRPRPIISPRP: the “shrunken log2 fold change” value is -0.14.

In the case of RRIRRRPPRLPRPRPRPMHIPRP, the “shrunken log2 fold change” value is 0.238.

In the case of RRIRDRPPRLPRPRPRPKALPRP, the “shrunken log2 fold change” value is -0.00674.

For the sequence RRIRQRPPRLPRPRPRPIYWPRP, the “shrunken log2 fold change” value is 0.0909.

As to RRIRDRPPRLPRPRPRPLKQPRP, the “shrunken log2 fold change” value worked out at 0.681.

With RRIRWRPPRLPRPRPRPTKYPRP, the “shrunken log2 fold change” value was -0.124.

With RRIRTRPPRLPRPRPRPWNEPRP, the “shrunken log2 fold change” value was 0.00902.

Consider RRIRNRPPRLPRPRPRPPVWPRP, for which the “shrunken log2 fold change” value was 0.476.

RRIRGRPPRLPRPRPRPVNEPRP: the “shrunken log2 fold change” value turned out to be 0.517.

Take RRIRNRPPRLPRPRPRPVMRPRP: the “shrunken log2 fold change” value worked out at 0.526.

In the case of RRIRVRPPRLPRPRPRPVMGPRP, the “shrunken log2 fold change” value came out at 0.216.

Consider RRIRHRPPRLPRPRPRPHETPRP, for which the “shrunken log2 fold change” value turned out to be 0.0369.

Take RRIRDRPPRLPRPRPRPNTCPRP: the “shrunken log2 fold change” value is -0.0241.

Turning to RRIRKRPPRLPRPRPRPHRDPRP, the “shrunken log2 fold change” value was -0.136.

For RRIRIRPPRLPRPRPRPWGIPRP, the “shrunken log2 fold change” value was -0.109.

Consider RRIRMRPPRLPRPRPRPHYHPRP, for which the “shrunken log2 fold change” value was -0.493.

Turning to RRIRLRPPRLPRPRPRPEPLPRP, the “shrunken log2 fold change” value was found to be 0.0706.

Take RRIRERPPRLPRPRPRPEWHPRP: the “shrunken log2 fold change” value was found to be 0.0244.

Turning to RRIRNRPPRLPRPRPRPFEKPRP, the “shrunken log2 fold change” value was -0.0819.

Consider RRIRIRPPRLPRPRPRPKVEPRP, for which the “shrunken log2 fold change” value amounted to 0.195.

On to RRIRPRPPRLPRPRPRPILFPRP, for which the “shrunken log2 fold change” value is -0.124.

RRIRMRPPRLPRPRPRPCNTPRP: the “shrunken log2 fold change” value was -0.238.

Turning to RRIRNRPPRLPRPRPRPYDWPRP, the “shrunken log2 fold change” value came to 0.0127.

Take RRIRHRPPRLPRPRPRPFELPRP: the “shrunken log2 fold change” value was -0.0176.

As for RRIRLRPPRLPRPRPRPSMAPRP, the “shrunken log2 fold change” value is -0.0685.

In the case of RRIRCRPPRLPRPRPRPSAIPRP, the “shrunken log2 fold change” value is -0.014.

Turning to RRIRRRPPRLPRPRPRPAKYPRP, the “shrunken log2 fold change” value came to 0.0401.

For RRIRCRPPRLPRPRPRPRDCPRP, the “shrunken log2 fold change” value turned out to be 0.313.

As to RRIRIRPPRLPRPRPRPPAFPRP, the “shrunken log2 fold change” value is -0.155.

As to RRIRWRPPRLPRPRPRPNEHPRP, the “shrunken log2 fold change” value is -0.113.

Take RRIRCRPPRLPRPRPRPCVDPRP: the “shrunken log2 fold change” value is -0.164.

RRIRARPPRLPRPRPRPHIGPRP: the “shrunken log2 fold change” value is -0.175.

With RRIRHRPPRLPRPRPRPKKRPRP, the “shrunken log2 fold change” value was -0.163.

Turning to RRIRIRPPRLPRPRPRPQRPPRP, the “shrunken log2 fold change” value is -0.465.

RRIRIRPPRLPRPRPRPWCEPRP: the “shrunken log2 fold change” value is -0.639.

As for RRIRDRPPRLPRPRPRPICIPRP, the “shrunken log2 fold change” value is 0.0464.

For the sequence RRIRPRPPRLPRPRPRPRTAPRP, the “shrunken log2 fold change” value is 0.562.

Regarding RRIRDRPPRLPRPRPRPLSSPRP, the “shrunken log2 fold change” value came to 0.184.

For RRIRRRPPRLPRPRPRPKNRPRP, the “shrunken log2 fold change” value was -0.0177.

For the sequence RRIRPRPPRLPRPRPRPWTFPRP, the “shrunken log2 fold change” value was -0.00547.

On to RRIRTRPPRLPRPRPRPKRWPRP, for which the “shrunken log2 fold change” value was found to be 0.723.

For RRIRDRPPRLPRPRPRPKVCPRP, the “shrunken log2 fold change” value is -0.0149.

With RRIRERPPRLPRPRPRPNVHPRP, the “shrunken log2 fold change” value was -0.344.

As to RRIRDRPPRLPRPRPRPTVPPRP, the “shrunken log2 fold change” value is -0.326.

Turning to RRIRYRPPRLPRPRPRPQYTPRP, the “shrunken log2 fold change” value was -1.34.

Regarding RRIRVRPPRLPRPRPRPDTGPRP, the “shrunken log2 fold change” value is -0.00804.

Consider RRIRSRPPRLPRPRPRPLAAPRP, for which the “shrunken log2 fold change” value is 0.562.

As to RRIRCRPPRLPRPRPRPEVKPRP, the “shrunken log2 fold change” value came out at 0.149.

As to RRIRGRPPRLPRPRPRPPCDPRP, the “shrunken log2 fold change” value worked out at 0.734.

Turning to RRIRFRPPRLPRPRPRPQLWPRP, the “shrunken log2 fold change” value stood at 0.338.

In the case of RRIRHRPPRLPRPRPRPIPDPRP, the “shrunken log2 fold change” value is -0.275.

RRIRVRPPRLPRPRPRPQEIPRP: the “shrunken log2 fold change” value was -0.0438.

For the sequence RRIRCRPPRLPRPRPRPIMSPRP, the “shrunken log2 fold change” value was -0.128.

Turning to RRIRLRPPRLPRPRPRPMMSPRP, the “shrunken log2 fold change” value is -0.00436.

Take RRIRTRPPRLPRPRPRPNMFPRP: the “shrunken log2 fold change” value is -0.315.

Take RRIRPRPPRLPRPRPRPFGRPRP: the “shrunken log2 fold change” value was -0.314.

On to RRIRQRPPRLPRPRPRPGCYPRP, for which the “shrunken log2 fold change” value is -0.451.

As for RRIRARPPRLPRPRPRPCRGPRP, the “shrunken log2 fold change” value is -0.1.

As for RRIRQRPPRLPRPRPRPGPKPRP, the “shrunken log2 fold change” value is -0.0957.

RRIRNRPPRLPRPRPRPDTGPRP: the “shrunken log2 fold change” value is -0.0135.

In the case of RRIRCRPPRLPRPRPRPYFAPRP, the “shrunken log2 fold change” value is -0.563.

Take RRIRWRPPRLPRPRPRPLSWPRP: the “shrunken log2 fold change” value came to 0.0993.

Regarding RRIRDRPPRLPRPRPRPEDPPRP, the “shrunken log2 fold change” value was 0.439.

Turning to RRIRTRPPRLPRPRPRPDFEPRP, the “shrunken log2 fold change” value came out at 0.0498.

Take RRIRIRPPRLPRPRPRPISHPRP: the “shrunken log2 fold change” value was -0.0541.

In the case of RRIRTRPPRLPRPRPRPESYPRP, the “shrunken log2 fold change” value is -0.0242.

As to RRIRHRPPRLPRPRPRPVRWPRP, the “shrunken log2 fold change” value worked out at 0.98.

Consider RRIRRRPPRLPRPRPRPAYHPRP, for which the “shrunken log2 fold change” value amounted to 0.0468.

RRIRMRPPRLPRPRPRPKDIPRP: the “shrunken log2 fold change” value is -0.0934.

In the case of RRIRARPPRLPRPRPRPVLTPRP, the “shrunken log2 fold change” value stood at 0.384.

In the case of RRIRLRPPRLPRPRPRPLNEPRP, the “shrunken log2 fold change” value is -0.0224.

For RRIRDRPPRLPRPRPRPVTQPRP, the “shrunken log2 fold change” value is -0.0479.

In the case of RRIRFRPPRLPRPRPRPNTYPRP, the “shrunken log2 fold change” value was -0.499.

Regarding RRIRCRPPRLPRPRPRPSNYPRP, the “shrunken log2 fold change” value is -0.348.

With RRIRQRPPRLPRPRPRPYDHPRP, the “shrunken log2 fold change” value was -0.534.

For the sequence RRIRHRPPRLPRPRPRPHGFPRP, the “shrunken log2 fold change” value was -0.0127.

Regarding RRIRYRPPRLPRPRPRPMLSPRP, the “shrunken log2 fold change” value worked out at 0.0215.

As to RRIRRRPPRLPRPRPRPDYKPRP, the “shrunken log2 fold change” value is -0.284.

Consider RRIRCRPPRLPRPRPRPLFWPRP, for which the “shrunken log2 fold change” value stood at 0.153.

Turning to RRIRFRPPRLPRPRPRPLCGPRP, the “shrunken log2 fold change” value was -0.154.

Consider RRIRPRPPRLPRPRPRPILTPRP, for which the “shrunken log2 fold change” value is -0.211.

Take RRIRFRPPRLPRPRPRPTCDPRP: the “shrunken log2 fold change” value is -0.0372.

Turning to RRIRLRPPRLPRPRPRPNMCPRP, the “shrunken log2 fold change” value stood at 0.0102.

Regarding RRIRWRPPRLPRPRPRPDTFPRP, the “shrunken log2 fold change” value is -0.0255.

As to RRIRTRPPRLPRPRPRPQDYPRP, the “shrunken log2 fold change” value is 0.0537.

With RRIRVRPPRLPRPRPRPFEHPRP, the “shrunken log2 fold change” value was -0.00133.

For the sequence RRIRARPPRLPRPRPRPLKMPRP, the “shrunken log2 fold change” value was found to be 0.283.

Regarding RRIRRRPPRLPRPRPRPLCMPRP, the “shrunken log2 fold change” value is -0.126.

On to RRIRPRPPRLPRPRPRPCYVPRP, for which the “shrunken log2 fold change” value is -0.469.

In the case of RRIRVRPPRLPRPRPRPMKMPRP, the “shrunken log2 fold change” value is -0.0573.

On to RRIRCRPPRLPRPRPRPGYIPRP, for which the “shrunken log2 fold change” value was -0.258.

For RRIRNRPPRLPRPRPRPMCTPRP, the “shrunken log2 fold change” value is -0.124.

RRIRHRPPRLPRPRPRPNNVPRP: the “shrunken log2 fold change” value is -0.68.

As to RRIRLRPPRLPRPRPRPHWRPRP, the “shrunken log2 fold change” value amounted to 0.147.

With RRIRKRPPRLPRPRPRPQSAPRP, the “shrunken log2 fold change” value was determined as 0.319.

As for RRIRVRPPRLPRPRPRPTNLPRP, the “shrunken log2 fold change” value was determined as 0.0684.

As to RRIRSRPPRLPRPRPRPSQGPRP, the “shrunken log2 fold change” value is -0.252.

As for RRIRPRPPRLPRPRPRPATKPRP, the “shrunken log2 fold change” value was 0.29.

For RRIRNRPPRLPRPRPRPAKAPRP, the “shrunken log2 fold change” value was 0.113.

As for RRIRHRPPRLPRPRPRPIRGPRP, the “shrunken log2 fold change” value was 0.0308.

Turning to RRIRMRPPRLPRPRPRPTCVPRP, the “shrunken log2 fold change” value stood at 0.424.

As to RRIRGRPPRLPRPRPRPEIIPRP, the “shrunken log2 fold change” value came to 1.5.

As for RRIRDRPPRLPRPRPRPMVVPRP, the “shrunken log2 fold change” value was -0.0202.

With RRIRHRPPRLPRPRPRPNIEPRP, the “shrunken log2 fold change” value is -0.172.

Take RRIRQRPPRLPRPRPRPECMPRP: the “shrunken log2 fold change” value is -0.0252.

Take RRIRGRPPRLPRPRPRPLQQPRP: the “shrunken log2 fold change” value came to 0.28.

With RRIRQRPPRLPRPRPRPGEHPRP, the “shrunken log2 fold change” value was -0.0241.

On to RRIRPRPPRLPRPRPRPAVMPRP, for which the “shrunken log2 fold change” value was found to be 0.215.

In the case of RRIRRRPPRLPRPRPRPTEEPRP, the “shrunken log2 fold change” value amounted to 1.07.

Source of the values: the supplement of paper PMC9112550, “Optimization of the antimicrobial peptide Bac7 by deep mutational scanning” (BMC Biology, 2022).
